Laboratory results as given in publication PMC9482650, “Quantitative fragmentomics allow affinity mapping of interactomes” (Nature Communications, 2022).

T1: APBA1_1, Q02410
T1 sequence (Q02410 651-752, limits assumed, looked up): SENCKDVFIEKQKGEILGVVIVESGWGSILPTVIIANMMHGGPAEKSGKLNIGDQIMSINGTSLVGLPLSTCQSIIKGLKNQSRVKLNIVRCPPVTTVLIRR

T2: APBA1_2, Q02410
T2 sequence (Q02410 742-832, limits assumed, looked up): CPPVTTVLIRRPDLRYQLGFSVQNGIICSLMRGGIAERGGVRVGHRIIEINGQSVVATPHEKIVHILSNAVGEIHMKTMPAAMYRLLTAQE

T3: ARHGAP21, Q5T5U3
T3 sequence (Q5T5U3 45-169, limits assumed, looked up): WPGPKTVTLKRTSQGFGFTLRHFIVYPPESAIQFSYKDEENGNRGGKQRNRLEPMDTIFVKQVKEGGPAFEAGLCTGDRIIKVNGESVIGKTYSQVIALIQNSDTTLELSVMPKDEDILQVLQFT

T4: DLG3_3, Q92796
T4 sequence (Q92796 374-475, limits assumed, looked up): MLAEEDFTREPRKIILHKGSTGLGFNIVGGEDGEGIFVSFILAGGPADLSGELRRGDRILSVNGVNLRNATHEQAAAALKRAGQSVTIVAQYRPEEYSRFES

T5: MPDZ_10, O75970
T5 sequence (O75970 1624-1722, limits assumed, looked up): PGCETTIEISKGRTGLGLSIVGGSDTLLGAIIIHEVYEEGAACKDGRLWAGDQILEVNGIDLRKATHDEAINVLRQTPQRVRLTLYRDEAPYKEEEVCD

T6: MPDZ_5, O75970
T6 sequence (O75970 695-796, limits assumed, looked up): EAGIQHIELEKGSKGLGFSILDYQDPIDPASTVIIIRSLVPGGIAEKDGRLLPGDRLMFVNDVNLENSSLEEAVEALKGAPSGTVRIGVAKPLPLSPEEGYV

T7: MPP7, Q5T2T1
T7 sequence (Q5T2T1 134-230, limits assumed, looked up): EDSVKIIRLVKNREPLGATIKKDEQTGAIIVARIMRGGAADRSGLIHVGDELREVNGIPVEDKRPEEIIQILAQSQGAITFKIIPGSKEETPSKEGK

T8: NHERF3_1, Q5T2W1
T8 sequence (Q5T2W1 4-100, limits assumed, looked up): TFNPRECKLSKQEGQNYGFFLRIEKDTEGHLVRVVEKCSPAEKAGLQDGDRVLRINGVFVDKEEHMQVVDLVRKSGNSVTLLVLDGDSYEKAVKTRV

T9: PDZD2_2, O15018
T9 sequence (O15018 329-429, limits assumed, looked up): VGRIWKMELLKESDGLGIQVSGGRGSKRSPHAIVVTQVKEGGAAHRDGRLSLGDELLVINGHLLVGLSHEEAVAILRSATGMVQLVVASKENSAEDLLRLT

T10: TX1BP3, O14907
T10 sequence (O14907 10-122, limits assumed, looked up): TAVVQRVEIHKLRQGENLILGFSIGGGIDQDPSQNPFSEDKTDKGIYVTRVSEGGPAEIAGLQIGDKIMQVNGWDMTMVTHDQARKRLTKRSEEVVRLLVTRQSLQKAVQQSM

B1: REELD1, A0A1B0GV85 (peptide)
chain: PSVGSKKTVL

Target: T1, APBA1_1, Q02410
Experiment: holdup assay
Set-up: key: below the threshold = too weak to quantify, mostly under pKd 3.1 to 4
Details: plain residues with an end cap or a label only (N-terminal biotin on a linker: ado-ado)

pKd | Binder
below the threshold | B1

Target: T2, APBA1_2, Q02410
Experiment: holdup assay
Set-up: key: below the threshold = too weak to quantify, mostly under pKd 3.1 to 4
Details: plain residues with an end cap or a label only (N-terminal biotin on a linker: ado-ado)

pKd | Binder
3.56 | B1

Target: T3, ARHGAP21, Q5T5U3
Experiment: holdup assay
Set-up: key: below the threshold = too weak to quantify, mostly under pKd 3.1 to 4
Details: plain residues with an end cap or a label only (N-terminal biotin on a linker: ado-ado)

pKd | Binder
3.93 | B1

Target: T4, DLG3_3, Q92796
Experiment: holdup assay
Set-up: key: below the threshold = too weak to quantify, mostly under pKd 3.1 to 4
Details: plain residues with an end cap or a label only (N-terminal biotin on a linker: ado-ado)

pKd | Binder
below the threshold | B1

Target: DLG4_1, P78352
Sequence (P78352 62-152): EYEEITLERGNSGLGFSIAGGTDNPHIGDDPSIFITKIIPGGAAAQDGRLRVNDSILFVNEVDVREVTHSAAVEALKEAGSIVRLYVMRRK
Experiment: holdup assay
Set-up: key: below the threshold = too weak to quantify, mostly under pKd 3.1 to 4
Details: plain residues with an end cap or a label only (N-terminal biotin on a linker: ado-ado)

pKd | Binder
below the threshold | B1

Target: GRID2IP_2, A4D2P6
Sequence (A4D2P6 272-370): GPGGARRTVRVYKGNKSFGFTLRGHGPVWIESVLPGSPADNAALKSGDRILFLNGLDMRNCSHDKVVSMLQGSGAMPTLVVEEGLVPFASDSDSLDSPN
Experiment: holdup assay
Set-up: key: below the threshold = too weak to quantify, mostly under pKd 3.1 to 4
Details: plain residues with an end cap or a label only (N-terminal biotin on a linker: ado-ado)

pKd | Binder
4.75 | B1

Target: GRIP2_3, Q9C0E4
Sequence (Q9C0E4 238-339): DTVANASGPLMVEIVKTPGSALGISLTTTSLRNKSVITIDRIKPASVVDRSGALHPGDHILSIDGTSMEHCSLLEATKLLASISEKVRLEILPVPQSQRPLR
Experiment: holdup assay
Set-up: key: below the threshold = too weak to quantify, mostly under pKd 3.1 to 4
Details: plain residues with an end cap or a label only (N-terminal biotin on a linker: ado-ado)

pKd | Binder
below the threshold | B1

Target: GRIP2_5, Q9C0E4
Sequence (Q9C0E4 544-642): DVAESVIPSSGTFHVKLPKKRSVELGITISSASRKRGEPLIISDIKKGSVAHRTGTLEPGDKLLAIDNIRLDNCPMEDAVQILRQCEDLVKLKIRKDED
Experiment: holdup assay
Set-up: key: below the threshold = too weak to quantify, mostly under pKd 3.1 to 4
Details: plain residues with an end cap or a label only (N-terminal biotin on a linker: ado-ado)

pKd | Binder
below the threshold | B1

Target: IL16_1, Q14005
Sequence (Q14005 210-306): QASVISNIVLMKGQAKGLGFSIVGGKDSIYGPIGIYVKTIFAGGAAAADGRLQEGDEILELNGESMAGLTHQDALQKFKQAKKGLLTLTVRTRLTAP
Experiment: holdup assay
Set-up: key: below the threshold = too weak to quantify, mostly under pKd 3.1 to 4
Details: plain residues with an end cap or a label only (N-terminal biotin on a linker: ado-ado)

pKd | Binder
below the threshold | B1

Target: Inadl_4, Q8NI35
Sequence (Q8NI35 547-651): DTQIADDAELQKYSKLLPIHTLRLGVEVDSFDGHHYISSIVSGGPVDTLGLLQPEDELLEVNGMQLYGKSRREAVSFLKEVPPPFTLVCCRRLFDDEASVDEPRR
Experiment: holdup assay
Set-up: key: below the threshold = too weak to quantify, mostly under pKd 3.1 to 4
Details: plain residues with an end cap or a label only (N-terminal biotin on a linker: ado-ado)

pKd | Binder
below the threshold | B1

Target: LDB3, O75112
Sequence (O75112 1-94): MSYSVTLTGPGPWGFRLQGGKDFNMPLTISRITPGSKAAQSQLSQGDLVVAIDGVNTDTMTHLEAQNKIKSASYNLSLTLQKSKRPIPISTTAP
Experiment: holdup assay
Set-up: key: below the threshold = too weak to quantify, mostly under pKd 3.1 to 4
Details: plain residues with an end cap or a label only (N-terminal biotin on a linker: ado-ado)

pKd | Binder
below the threshold | B1

Target: MAGI1_1, Q96QZ7
Sequence (Q96QZ7 1-106): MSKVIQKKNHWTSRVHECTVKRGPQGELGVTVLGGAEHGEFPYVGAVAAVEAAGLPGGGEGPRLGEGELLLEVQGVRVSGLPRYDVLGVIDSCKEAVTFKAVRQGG
Experiment: holdup assay
Set-up: key: below the threshold = too weak to quantify, mostly under pKd 3.1 to 4
Details: plain residues with an end cap or a label only (N-terminal biotin on a linker: ado-ado)

pKd | Binder
below the threshold | B1

Target: MAGI2_3, Q86UL8
Sequence (Q86UL8 600-682): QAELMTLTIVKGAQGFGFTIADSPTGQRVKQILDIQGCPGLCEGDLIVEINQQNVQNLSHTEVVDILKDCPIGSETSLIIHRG
Experiment: holdup assay
Set-up: key: below the threshold = too weak to quantify, mostly under pKd 3.1 to 4
Details: plain residues with an end cap or a label only (N-terminal biotin on a linker: ado-ado)

pKd | Binder
below the threshold | B1

Target: MAST2, Q6P0Q8
Sequence (Q6P0Q8 1099-1202): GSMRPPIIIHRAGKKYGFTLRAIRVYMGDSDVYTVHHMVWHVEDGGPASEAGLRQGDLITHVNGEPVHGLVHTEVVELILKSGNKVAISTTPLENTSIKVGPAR
Experiment: holdup assay
Set-up: key: below the threshold = too weak to quantify, mostly under pKd 3.1 to 4
Details: plain residues with an end cap or a label only (N-terminal biotin on a linker: ado-ado)

pKd | Binder
5.05 | B1

Target: T5, MPDZ_10, O75970
Experiment: holdup assay
Set-up: key: below the threshold = too weak to quantify, mostly under pKd 3.1 to 4
Details: plain residues with an end cap or a label only (N-terminal biotin on a linker: ado-ado)

pKd | Binder
below the threshold | B1

Target: T6, MPDZ_5, O75970
Experiment: holdup assay
Set-up: key: below the threshold = too weak to quantify, mostly under pKd 3.1 to 4
Details: plain residues with an end cap or a label only (N-terminal biotin on a linker: ado-ado)

pKd | Binder
below the threshold | B1

Target: T7, MPP7, Q5T2T1
Experiment: holdup assay
Set-up: key: below the threshold = too weak to quantify, mostly under pKd 3.1 to 4
Details: plain residues with an end cap or a label only (N-terminal biotin on a linker: ado-ado)

pKd | Binder
below the threshold | B1

Target: NHERF2_2, Q15599
Sequence (Q15599 142-238): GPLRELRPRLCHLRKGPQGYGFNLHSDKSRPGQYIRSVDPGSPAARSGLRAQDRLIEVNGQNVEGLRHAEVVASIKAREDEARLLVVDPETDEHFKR
Experiment: holdup assay
Set-up: key: below the threshold = too weak to quantify, mostly under pKd 3.1 to 4
Details: plain residues with an end cap or a label only (N-terminal biotin on a linker: ado-ado)

pKd | Binder
3.68 | B1

Target: T8, NHERF3_1, Q5T2W1
Experiment: holdup assay
Set-up: key: below the threshold = too weak to quantify, mostly under pKd 3.1 to 4
Details: plain residues with an end cap or a label only (N-terminal biotin on a linker: ado-ado)

pKd | Binder
3.72 | B1

Target: NHERF4_2, Q86UT5
Sequence (Q86UT5 220-308): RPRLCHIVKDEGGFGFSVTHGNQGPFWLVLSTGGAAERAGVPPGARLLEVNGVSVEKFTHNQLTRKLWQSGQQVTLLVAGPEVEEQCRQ
Experiment: holdup assay
Set-up: key: below the threshold = too weak to quantify, mostly under pKd 3.1 to 4
Details: plain residues with an end cap or a label only (N-terminal biotin on a linker: ado-ado)

pKd | Binder
below the threshold | B1

Target: NHERF4_4, Q86UT5
Sequence (Q86UT5 464-550): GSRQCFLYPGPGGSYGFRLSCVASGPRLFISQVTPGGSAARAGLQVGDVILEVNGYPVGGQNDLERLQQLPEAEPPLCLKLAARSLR
Experiment: holdup assay
Set-up: key: below the threshold = too weak to quantify, mostly under pKd 3.1 to 4
Details: plain residues with an end cap or a label only (N-terminal biotin on a linker: ado-ado)

pKd | Binder
below the threshold | B1

Target: NOS1, P29475
Sequence (P29475 9-101): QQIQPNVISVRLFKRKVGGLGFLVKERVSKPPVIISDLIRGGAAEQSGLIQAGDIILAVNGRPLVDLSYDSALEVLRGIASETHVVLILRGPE
Experiment: holdup assay
Set-up: key: below the threshold = too weak to quantify, mostly under pKd 3.1 to 4
Details: plain residues with an end cap or a label only (N-terminal biotin on a linker: ado-ado)

pKd | Binder
3.64 | B1

Target: PARD3_3, Q8TEW0
Sequence (Q8TEW0 582-685): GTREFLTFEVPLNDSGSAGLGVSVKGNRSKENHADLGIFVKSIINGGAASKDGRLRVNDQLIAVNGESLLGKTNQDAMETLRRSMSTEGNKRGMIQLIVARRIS
Experiment: holdup assay
Set-up: key: below the threshold = too weak to quantify, mostly under pKd 3.1 to 4
Details: plain residues with an end cap or a label only (N-terminal biotin on a linker: ado-ado)

pKd | Binder
below the threshold | B1

Target: T9, PDZD2_2, O15018
Experiment: holdup assay
Set-up: key: below the threshold = too weak to quantify, mostly under pKd 3.1 to 4
Details: plain residues with an end cap or a label only (N-terminal biotin on a linker: ado-ado)

pKd | Binder
3.52 | B1

Target: PICK1, Q9NRD5
Sequence (Q9NRD5 17-115): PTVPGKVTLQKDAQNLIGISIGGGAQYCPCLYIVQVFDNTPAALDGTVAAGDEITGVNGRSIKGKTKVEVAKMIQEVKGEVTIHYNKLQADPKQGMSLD
Experiment: holdup assay
Set-up: key: below the threshold = too weak to quantify, mostly under pKd 3.1 to 4
Details: plain residues with an end cap or a label only (N-terminal biotin on a linker: ado-ado)

pKd | Binder
below the threshold | B1

Target: SCRIB_2, Q14160
Sequence (Q14160 857-960): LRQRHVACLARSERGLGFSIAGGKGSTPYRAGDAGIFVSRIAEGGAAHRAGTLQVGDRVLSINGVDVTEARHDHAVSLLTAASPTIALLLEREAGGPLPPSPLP
Experiment: holdup assay
Set-up: key: below the threshold = too weak to quantify, mostly under pKd 3.1 to 4
Details: plain residues with an end cap or a label only (N-terminal biotin on a linker: ado-ado)

pKd | Binder
below the threshold | B1

Target: T10, TX1BP3, O14907
Experiment: holdup assay
Set-up: key: below the threshold = too weak to quantify, mostly under pKd 3.1 to 4
Details: plain residues with an end cap or a label only (N-terminal biotin on a linker: ado-ado)

pKd | Binder
below the threshold | B1
